Data from the nanobody polyreactivity screen of Harvey et al. (2022).

Assay: yeast display, Sf9 membrane polyspecificity reagent, FACS + sequencing; frameworks hold sequencing errors
Outline: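 Galactose induction of a Saccharomyces cerevisiae BJ5465 synthetic nanobody display library ran 36–48 hours. The cells were then stained for 1 hour at 4 °C with 10% biotinylated, detergent-solubilized Sf9 membrane reagent, pulled down on streptavidin microbeads and FACS-sorted into low and high (top ~1%) gates on expression and reagent-binding fluorescence. Labels for polyreactivity follow the gate of origin.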
For “QVQLVESGGGLVQAGGSLRLICAASGITFYVYTMGWYRQAPGKERELVAAINGSGGSTNYADSVKGRFTISRDNAKNTVYLQMNSLKPEDTAVYYCAADWSLRLYDYWGQGTQVTVSS”, the “polyreactivity (PSR sort gate)” value was “low polyreactivity”. With “QVQLVESGGGLVQAGGSLRLICAASGITLDGNAMGWYRQAPGKERELVAAITSGGGTNYADSVKGRFTISRDNAKNTVYLQMNSLKPEDTAVYYCAAEGYVGYYDYDYWGQGTQVTVSS” the “polyreactivity (PSR sort gate)” value was “low polyreactivity”. In the case of “QVQLVESGGGLVQAGGSLRLICAASGKTFSDYAMGWYRQAPGKERELVAAISSSGVRTYYADSVKGRFTISRDNAKNTVYLQMNSLKPEDTAVDDCNAGYVRRYYPASGYGYWGQGTHVTVSS”, the “polyreactivity (PSR sort gate)” value is reported as “high polyreactivity”. In the case of “QVQLVESGGGLVQAGGSLRLICAASGLIFDYYAMGWYRQSPGKDRELVAAITSSSGITYYADSVKGRFTISRDNAKNTVSLQMNSLKPEDTAVYYCNADTRTTTRRFNPYDYWGQGTQVTVSS”, the “polyreactivity (PSR sort gate)” value is reported as “low polyreactivity”. With “QVQLVESGGGLVQAGGSLRLICAASGLIFKVYAMGWYRQAPGKERELVAAITYSGGSTDYADSVKGRFTISRDNAKNTVYLQMNSLKPEDTAVYYCNVEKVGHVNSYGYDYWGQGTQVTVSS” the “polyreactivity (PSR sort gate)” value was “low polyreactivity”. With “QVQLVESGGGLVQAGGSLRLICAASGLIFTHNTMGWYRQAPGKERELVAAITTSGGTTYYADSVKGRFTISRDNAKNTVYLQMNSLKPEDTAFYYCAARAPWPKWGYYYWGQGTQVTVSS” the “polyreactivity (PSR sort gate)” value was “high polyreactivity”. In the case of “QVQLVESGGGLVQAGGSLRLICAASGLIFVRYAMGWYRQAPGKERELVATITWSGGTTYADSVKGRFTISRDNAKNTVYLQMNSLNPEDTAVYYCAVEWPAWTDSDYPVGGHAFGYWGQGTQVTVSS”, the “polyreactivity (PSR sort gate)” value is reported as “low polyreactivity”. For “QVQLVESGGGLVQAGGSLRLICAASGLIFWRNAMGWYRQAPGKERELVAAISRTGGNTYYADSVKGRFTISRDNAKNTVYLQMNSLKPEDTAVYYCAKDVGKGYGAYPLDYWGQGTQVTVSS”, the “polyreactivity (PSR sort gate)” value was “low polyreactivity”. In the case of “QVQLVESGGGLVQAGGSLRLICAASGLIFYDNMGWYRQAPGKERELVAAISSSGGSTSYADSVKGRFTISRDNAKNTVYLQMNSLKPEDTAVYYCAADSYPAYLGFVGFDYWGQGTQVTVSS”, the “polyreactivity (PSR sort gate)” value is reported as “low polyreactivity”. With “QVQLVESGGGLVQAGGSLRLICAASGLTFASYAMGWYRQAPGKERELVAAISSSGRTYYADSVKGRFTISRDNAKNTVYLQMNSLKPEDTAVYYCATRGLSRYYDYYYWGQGTQVTVSS” the “polyreactivity (PSR sort gate)” value was “high polyreactivity”. With “QVQLVESGGGLVQAGGSLRLICAASGLTFFLYPMGWYRPAPGKERELVAAISSRGGSTYYADSVKGRFTISRDKAKNTVYLQMYSLKPEDTAVYYCADATKGDEDYWGQGTQVTVSS” the “polyreactivity (PSR sort gate)” value was “high polyreactivity”. For “QVQLVESGGGLVQAGGSLRLICAASGLTFGDYTMGWYRQAPGKERELVAAISTSGGSTYYADSVKGRFTISRDNAKKTVYLLMNSLKPEDTAVYYCNARRTHTRSHYYYWGQGTQVTVSS”, the “polyreactivity (PSR sort gate)” value was “high polyreactivity”. With “QVQLVESGGGLVQAGGSLRLICAASGNIFAYYAMGWYRQAPGKERELVAGISRRAGNTYYADSVTGRFTISRDNAKNTVYLHMNSLKREDTAFYYCNKYTKRSGMDYWGQGTQVTVSS” the “polyreactivity (PSR sort gate)” value was “high polyreactivity”. For “QVQLVESGGGLVQAGGSLRLICAASGNIFDLYAMGWYRQAPGKERELVAAITRSSSRTYYADSVKGRFTISRDNAKNTVSLQMNSLKPEDTAVYYCRAKQVNRVDYWGQGTQVTVSS”, the “polyreactivity (PSR sort gate)” value was “high polyreactivity”. For “QVQLVESGGGLVQAGGSLRLICAASGNIFSFNDMGWSRPAPGKERELVASITSGGRTNYADSVMGRFTISRDNAKNTVYLQMNSLKPEDTAVYYCAADYSVPTSQAYDYWGQGTQVTVSS”, the “polyreactivity (PSR sort gate)” value was “low polyreactivity”. In the case of “QVQLVESGGGLVQAGGSLRLICAASGNIFYRYAMGWYRQAPGKERELVAAISGNSGNTYYADSVKGRFTISRDNAKNTVYLQMNSLKPEDTAVYYCNARVVVRRDYWGQGTQVTVSS”, the “polyreactivity (PSR sort gate)” value is reported as “high polyreactivity”. In the case of “QVQLVESGGGLVQAGGSLRLICAASGPTFYYYAMGWYTQAPGKERELVARISRGGSTNYADSVKGRFTISRDNAKNTVYLQMNSLKAEDTAVYYFAITISYTGGYWGYDYWGQGTQVTVSS”, the “polyreactivity (PSR sort gate)” value is reported as “high polyreactivity”. With “QVQLVESGGGLVQAGGSLRLICAASGRIFCNYAMGWSRQAPGKERELVAAISSGGNTYYADSVKGRFTISRDNAKNTVYLQMNSLKPEDSAVYYCNEVYVGWQYGYDYWGQGTQVTVSS” the “polyreactivity (PSR sort gate)” value was “low polyreactivity”. With “QVQLVESGGGLVQAGGSLRLICAASGRIFDDNAMGWYRQAPGKERELVATISSTGGRTYYADSVKGRFTISRDNAKNTVYLQMNSLKPEDTAVYYCAARRRQGGYYYWGQGTQVTVSS” the “polyreactivity (PSR sort gate)” value was “high polyreactivity”. For “QVQLVESGGGLVQAGGSLRLICAASGRIFGIYAMGWYRQAPGKERELVASITGSSGSTNYADSVKGRFTISRDNAKNTVYLQMNSLKPEDTAVYYCAAERGYHGGGSGLYDYWGQGTQVTVSS”, the “polyreactivity (PSR sort gate)” value was “low polyreactivity”. In the case of “QVQLVESGGGLVQAGGSLRLICAASGRIFGTNAIGWYRQAPGQEREVVATITRGGGNTYYADSVKGRFTISRDNAKNTVYLQMNSLKPEDTAVYYCAAKFHRFAWYAHYDYWGPGTQVTVSS”, the “polyreactivity (PSR sort gate)” value is reported as “low polyreactivity”. In the case of “QVQLVESGGGLVQAGGSLRLICAASGRIFGVYVMGLYRPAPGKERELVAAISWSGSHTYYADSVKGRFTISRDNAKNTVYLQMNSLKPEDTAVYYCNADSYPEYTGPGLDWYDYWGQGTQVTVSS”, the “polyreactivity (PSR sort gate)” value is reported as “low polyreactivity”. In the case of “QVQLVESGGGLVQAGGSLRLICAASGRIFKVYAMGWYRQAPGKERELVAVITGGGSTNYADSVKGRFTISRDNAKNTVDLQMNSLKPEDTAVYYCATEGYGHGGETDGGVYSELGSWGQGTQVTVSS”, the “polyreactivity (PSR sort gate)” value is reported as “low polyreactivity”. In the case of “QVQLVESGGGLVQAGGSLRLICAASGRIFLGYAMGWYRKAPGKERELVAAITSSSGITYYADSVKGRFTISRDNAKNSVYLQMNSLKPEDTAVYYCAARASSGRRTKRYNYWGQGTKVTVSS”, the “polyreactivity (PSR sort gate)” value is reported as “low polyreactivity”. In the case of “QVQLVESGGGLVQAGGSLRLICAASGRIFNSYAMGWFRQAPGKEMELVAAISRNGGITYYADSVKGRFTISRDNAKNTVYFQMNSLKPEDTAVYYCNADSSRRRYSSDYWGQGTQVTVSS”, the “polyreactivity (PSR sort gate)” value is reported as “high polyreactivity”. With “QVQLVESGGGLVQAGGSLRLICAASGRIFPFYAMGWYRPEPGKERELVASISWSGGSTYYADSVKGRFTISRDNAKNPVYLQMNSLKPEDTAVFFCAARRWIADPGRIMDYWGQGTQVTVSS” the “polyreactivity (PSR sort gate)” value was “high polyreactivity”. For “QVQLVESGGGLVQAGGSLRLICAASGRIFRGNVMGWYRQAPGKERELDAAISSGGRTYYADSVKGRFTISRDNAKNTVYLQMNSLKPEDSAVYYCAKAFREGEGKFDYWGQGTQVTVSS”, the “polyreactivity (PSR sort gate)” value was “high polyreactivity”. For “QVQLVESGGGLVQAGGSLRLICAASGRIFRRYAMGWYRQAPGKERELVASISLSGGSTYYADSVKGRFTISRDNAKNTVYLQMNSLKPEDTAVYYCAAVRPGVSNYGHWGQGTQLTVSS”, the “polyreactivity (PSR sort gate)” value was “high polyreactivity”. With “QVQLVESGGGLVQAGGSLRLICAASGRIFRVYAMGWYRQSPGKERELVAAISSRGGRTYYADSVKGRFTISRDNAKNTVYLQMKSMIPEDTAVYYCAADGRSSSRTTYRYDYWGQGTQVTVSS” the “polyreactivity (PSR sort gate)” value was “high polyreactivity”. With “QVQLVESGGGLVQAGGSLRLICAASGRIFSRNAMGWYRQAPGKERELVAGISARGGRTYYADSVKGRFTISRDNAKNTVYLQMNSLKPEDTAVYYCNARTGYQDGTYGNDYWGQGTQVTVSS” the “polyreactivity (PSR sort gate)” value was “high polyreactivity”. For “QVQLVESGGGLVQAGGSLRLICAASGRIFTYNGMGWYRQAPGKERELVAAISSGGSTYADSVKGRFTISRDNAKNTVYLQMNSLKPEDTAVYYCAAVKGYQGSSYQRVDWEGDYWGQGTQVSVSS”, the “polyreactivity (PSR sort gate)” value was “low polyreactivity”. With “QVQLVESGGGLVQAGGSLRLICAASGRIFVRNARGLYRQAPGTERELVASISQNGGRTYYADSVKGRFTISRDNAKNTVYLQMNSLKPEDTAVYYCARGRGGSRPGLDYWGQGTQVTVSS” the “polyreactivity (PSR sort gate)” value was “high polyreactivity”. In the case of “QVQLVESGGGLVQAGGSLRLICAASGRIFYAYAMGWYRQAPGKERELVATITYGGGSTYYADSVKGRFTISRDNAKNTVYLQMNSLKPEDTAVYYCAAVRTGSTLYTIRYYYWGQGTQVTVSS”, the “polyreactivity (PSR sort gate)” value is reported as “low polyreactivity”. For “QVQLVESGGGLVQAGGSLRLICAASGRIFYPYAMGWYRPAPGKERELVATITRTGSTYYADSVKGRFTISRDNAKNTVYLHMNSLKPEDTAVYYCAVQRSYVGPRQYNYWGQGTQVTVSS”, the “polyreactivity (PSR sort gate)” value was “high polyreactivity”. In the case of “QVQLVESGGGLVQAGGSLRLICAASGRIFYRYAMGWYRQAPGKERELVAAITWRGGSTYYADSVKGRFTISRDNAKNTVYLQMNSLKPEDTAVYYCAAAAYGVPWRSYLGVFKSHMDYWGQGTQVTVSS”, the “polyreactivity (PSR sort gate)” value is reported as “high polyreactivity”. In the case of “QVQLVESGGGLVQAGGSLRLICAASGRILYTYAMGWYRQAPGKERELVAGISRGGRTYYADSVKGRFTISRDNAKNTVYLQMNSLKPEDTAVYYCAARLQYGIQYRYDYWGQGTLVTVSS”, the “polyreactivity (PSR sort gate)” value is reported as “high polyreactivity”. With “QVQLVESGGGLVQAGGSLRLICAASGRNFNHYAMGWYRQAPGKERELVAGITISCGSTYYADSVKGRFTISRDNSKNTVSLQINSLKPEVTAVYYCNAVYDYYRQSKWSMDYWGQGTQVTVSS” the “polyreactivity (PSR sort gate)” value was “low polyreactivity”. With “QVQLVESGGGLVQAGGSLRLICAASGRSFDYYAMGWYRQAPGKERDLVAAITSGGTTTYYADSVKGRFTISRDNAKNTVYVQMNSLKPEDYAVYYCAKYPYHIYHTDGDYWGQGTQVTVSS” the “polyreactivity (PSR sort gate)” value was “low polyreactivity”. In the case of “QVQLVESGGGLVQAGGSLRLICAASGRTFALYAMGWYRQAPGKEREVVASISWRGGSTYYADSVKGRFTISRDTAKNTVYLQMNSLKPEDTAVDYCAADTWSYGPLNYRLEYWGQGTQVTVSS”, the “polyreactivity (PSR sort gate)” value is reported as “low polyreactivity”. With “QVQLVESGGGLVQAGGSLRLICAASGRTFFRYGMGWYRQAPGKEREFVAAITRSGTTTYYADSVKGRFTISRDNAKNTVYLQMNSLKPEDTAVYYCDAQRAAPVDGKSDYWGQGTQVTLSS” the “polyreactivity (PSR sort gate)” value was “low polyreactivity”. With “QVQLVESGGGLVQAGGSLRLICAASGRTFGIYAMGWYSPAPGKERELVATISWRGGSTYYADSVKGRFTISRDNAKNSVYLQMNSLKPEDTGVYYCAAGYYPYWGQGTQVTVSS” the “polyreactivity (PSR sort gate)” value was “low polyreactivity”. In the case of “QVQLVESGGGLVQAGGSLRLICAASGRTFGVNAMGWYRQAPGKERELVASIRWNGGSTYYADSVKGRFTISRDNAKNTVYLQMNSLKPEDTAVYYCNAVRRYRSREFDYWGQGTQVTVSS”, the “polyreactivity (PSR sort gate)” value is reported as “low polyreactivity”. With “QVQLVESGGGLVQAGGSLRLICAASGRTFINYAMGWSRQAPGKERELVAAITTGGRTNYADSVKGRFTISRDNAKNTVYLQMKSLKPEDTAVYYCAADRYYWGRYTLNYWGQGTQVTVSS” the “polyreactivity (PSR sort gate)” value was “low polyreactivity”.
